According to publication PMC6251370:

Molecular target: recombinant N-terminal SH3 domain (SH3N) of CRKL with a C-terminal hexahistidine tag (human)
Assay: dynamic mass redistribution

Kd: 7.38 µM
Binder: QPPPVPAKKS [peptide corresponding to the second PXXPXK motif of SASH1 (aa982–991)]
